# In publication PMC7283272, “Identifying the role of PrimPol in TDF-induced toxicity and implications of its loss of function mutation in an HIV+ patient”:
# T1: PrimPol WT (UniProt Q96LW4 1-560)
# T1 sequence: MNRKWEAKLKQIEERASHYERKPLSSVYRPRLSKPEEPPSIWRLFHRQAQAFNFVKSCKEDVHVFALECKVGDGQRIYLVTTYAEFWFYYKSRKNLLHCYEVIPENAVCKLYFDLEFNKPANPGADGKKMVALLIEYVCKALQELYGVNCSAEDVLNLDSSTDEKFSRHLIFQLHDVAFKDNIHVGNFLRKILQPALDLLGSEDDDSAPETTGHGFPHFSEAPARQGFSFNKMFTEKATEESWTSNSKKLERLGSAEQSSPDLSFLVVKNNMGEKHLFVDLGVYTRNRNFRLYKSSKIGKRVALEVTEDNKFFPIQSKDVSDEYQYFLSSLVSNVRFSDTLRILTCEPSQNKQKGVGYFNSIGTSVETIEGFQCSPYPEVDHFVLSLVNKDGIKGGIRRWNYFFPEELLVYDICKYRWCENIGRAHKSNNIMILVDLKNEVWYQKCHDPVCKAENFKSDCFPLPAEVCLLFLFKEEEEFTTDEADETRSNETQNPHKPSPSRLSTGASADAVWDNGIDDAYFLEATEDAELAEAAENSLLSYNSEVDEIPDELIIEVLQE
# B1: D20A/D45 primer/template (dsDNA)
# DNA 1: GCCTCGCAGCCGTCCAACCA
# DNA 2: GGACGGCATTGGATCGAGGTTGAGTTGGTTGGACGGCTGCGAGGC
# Molecular target: T1, PrimPol WT
# Test: thermal shift (DSF, stabilization by DNA); 10 uM Mn2+; EMSA: Mn2+ present, buffer not given in the material. DSF: 5 uM protein, 5 uM dsDNA, 50 mM Tris pH 7.5, 300 mM NaCl, 0.5 uM TCEP, 5% glycerol, 10 uM MgCl2 or MnCl2, 4-95 C ramp
# Details: protein: recombinant; tags: N-terminal His-TEV (tag cleaved); 20 bp, template 5' overhang 25 nt
binder,measurement,value
B1,binding result,binds
